The values below come from patent publication US7393918B2, “Protein binding miniature proteins and uses thereof” (priority 2003, dated 2008).

A word on the IC50: it is the point on the concentration scale where inhibition reaches its midpoint.

Some results are limits rather than exact numbers.

The target in one assay is Mena1-112 EVH1 domain (Mus musculus, UniProt Q03173). The experiment in a line: tryptophan fluorescence perturbation analysis of EVH1 domain binding. Conditions: all EVH1 domains tested (Mena1-112, VASP1-115, Evl1-115).
Chain of Mena1-112 EVH1 domain (Q03173 1-112): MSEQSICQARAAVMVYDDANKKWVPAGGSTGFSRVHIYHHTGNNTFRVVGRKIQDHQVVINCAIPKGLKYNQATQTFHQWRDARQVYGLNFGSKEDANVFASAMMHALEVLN
The test system of the next assay is L. monocytogenes. Nature of the assay: L. monocytogenes actin-based motility in Xenopus laevis egg cytoplasmic extracts. On the set-up: species or system Listeria monocytogenes. The protocol: Errors bars show the intraquartile range.
L. monocytogenes motility in mammalian cells and extracts is due to interactions between the 639-residue bacterial protein ActA and host proteins that recruit and activate actin polymerization. Addition of 10 μM ActA11 decreased the median speed of L. monocytogenes by 89%, consistent with previous work. […] Further experimentation will be required to fully understand the molecular events that result in altered motility.

For a further assay, the target named is Mena1-112 (Mus musculus, UniProt Q03173). The experiment in a line: competition with pGolemi^Flu for binding to Mena1-112. To be noted: read-out: IC50, competition with pGolemi^Flu for binding to Mena1-112.
Chain of Mena1-112 (Q03173 1-112): as above

Consider “ActA11: 11 residue peptide comprising PPII repeat 2 of L. monocytogenes ActA; best previously known Mena ligand (DFPPPPTDEEL; ActA11, peptide comprising PPII repeat of ActA protein)”, for which the “Krel among EVH1 domains” value with Mena1-112 EVH1 domain is reported as less than 3. The “decrease of median speed of L. monocytogenes” value in the assay with L. monocytogenes (10 μM) turned out to be 89%. Also, the “discontinuous tail formation of L. monocytogenes” value in the assay with L. monocytogenes (any concentration tested) is given as “Discontinuous tails were not observed”. In the assay with Mena1-112, the half-maximal inhibitory concentration (IC50) stood at 4 ± 0.2 µM.
